According to IntAct's records for PubMed 16002617:

B1: Cyclic dof factor 1 (Arabidopsis thaliana (Mouse-ear cress)), Q8W1E3 (parent)
chain: MLETKDPAIKLFGMKIPFPTVLEVADEEEEKNQNKTLTDQSEKDKTLKKPTKILPCPRCNSMETKFCYYNNYNVNQPRHFCKACQRYWTSGGTMRSVPIGAGRRKNKNNSPTSHYHHVTISETNGPVLSFSLGDDQKVSSNRFGNQKLVARIENNDERSNNNTSNGLNCFPGVSWPYTWNPAFYPVYPYWSMPVLSSPVSSSPTSTLGKHSRDEDETVKQKQRNGSVLVPKTLRIDDPNEAAKSSIWTTLGIKNEVMFNGFGSKKEVKLSNKEETETSLVLCANPAALSRSINFHEQM

Variants of: B1
Conditions: with ado3_arath ADO3, Q9C9W9
Chain of ado3_arath ADO3, Q9C9W9 (Q9C9W9 whole entry): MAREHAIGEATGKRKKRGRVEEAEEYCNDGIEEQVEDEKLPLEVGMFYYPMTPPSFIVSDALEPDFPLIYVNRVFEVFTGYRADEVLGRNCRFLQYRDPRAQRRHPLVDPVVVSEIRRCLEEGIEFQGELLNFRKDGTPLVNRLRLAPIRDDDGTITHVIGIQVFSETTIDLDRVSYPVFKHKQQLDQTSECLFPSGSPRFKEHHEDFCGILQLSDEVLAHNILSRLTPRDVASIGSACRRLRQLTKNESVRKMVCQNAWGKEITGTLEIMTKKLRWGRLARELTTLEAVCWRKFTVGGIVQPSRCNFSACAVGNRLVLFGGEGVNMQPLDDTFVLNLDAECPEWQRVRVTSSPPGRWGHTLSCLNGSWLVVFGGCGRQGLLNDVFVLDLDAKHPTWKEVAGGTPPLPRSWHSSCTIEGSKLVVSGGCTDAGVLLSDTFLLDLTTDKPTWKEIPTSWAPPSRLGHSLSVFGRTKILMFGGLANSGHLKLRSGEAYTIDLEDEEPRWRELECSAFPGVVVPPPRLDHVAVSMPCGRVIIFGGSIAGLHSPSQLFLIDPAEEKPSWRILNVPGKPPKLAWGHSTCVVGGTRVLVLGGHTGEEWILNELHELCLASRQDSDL

effect of a mutation on the interaction | Variant
decreasing interaction | K253A
